Laboratory results taken from article PMC11408855, “The structure of the SufS–SufE complex reveals interactions driving protected persulfide transfer in iron-sulfur cluster biogenesis” (The Journal of Biological Chemistry, 2024).
Numbering of substitutions follows the chain as printed. Names and notes keep the numbering of the source.

Tests used:
Assay in all cases: fluorescence polarisation; 100 nM BODIPY-FL-labeled EcSufE titrated with EcSufS; 50 mM Mops pH 8.0, 150 mM NaCl, 0.1 mg/ml bovine serum albumin, 25 °C, 30 min; absence of cysteine; apparent KD
Conditions in all cases: both partners purified
[1] = biological target: T1, H343A EcSufS, C-terminal his-tagged (Escherichia coli, UniProt P77444 1-406, H343A, PLP (pyridoxal 5'-phosphate) cofactor)
T1 construct: EcSufS of Escherichia coli, UniProt P77444, with H343A; also called H343A SufS; source: E. coli BL21(DE3)Δsuf, pET44, autoinduction, purified (Ni2+ HisTrap HP); not shown: His tag, C-terminal, kept
T1 sequence: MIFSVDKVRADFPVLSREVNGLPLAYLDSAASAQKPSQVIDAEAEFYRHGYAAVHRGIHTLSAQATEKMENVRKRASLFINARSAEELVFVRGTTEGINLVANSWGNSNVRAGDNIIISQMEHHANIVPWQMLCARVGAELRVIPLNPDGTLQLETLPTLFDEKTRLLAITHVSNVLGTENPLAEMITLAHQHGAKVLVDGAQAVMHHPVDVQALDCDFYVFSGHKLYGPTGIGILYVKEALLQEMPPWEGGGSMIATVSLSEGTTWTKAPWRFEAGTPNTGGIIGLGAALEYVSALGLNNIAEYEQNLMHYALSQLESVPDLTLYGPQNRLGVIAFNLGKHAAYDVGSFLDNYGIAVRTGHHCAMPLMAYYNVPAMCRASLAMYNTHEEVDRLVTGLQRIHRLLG

[2] = biological target: T2, S349A EcSufS, C-terminal his-tagged (Escherichia coli, UniProt P77444 1-406, S349A, PLP (pyridoxal 5'-phosphate) cofactor)
T2 construct: EcSufS of Escherichia coli, UniProt P77444, with S349A; also called S349A SufS; source: E. coli BL21(DE3)Δsuf, pET44, autoinduction, purified (Ni2+ HisTrap HP); not shown: His tag, C-terminal, kept
T2 sequence: T1 sequence with A343H, S349A

[3] = biological target: T3, N353A EcSufS, C-terminal his-tagged (Escherichia coli, UniProt P77444 1-406, N353A, PLP (pyridoxal 5'-phosphate) cofactor)
T3 construct: EcSufS of Escherichia coli, UniProt P77444, with N353A; also called N353A SufS; source: E. coli BL21(DE3)Δsuf, pET44, autoinduction, purified (Ni2+ HisTrap HP); not shown: His tag, C-terminal, kept
T3 sequence: T1 sequence with A343H, N353A

[4] = biological target: T4, Y354A EcSufS, C-terminal his-tagged (Escherichia coli, UniProt P77444 1-406, Y354A, PLP (pyridoxal 5'-phosphate) cofactor)
T4 construct: EcSufS of Escherichia coli, UniProt P77444, with Y354A; also called Y354A SufS; source: E. coli BL21(DE3)Δsuf, pET44, autoinduction, purified (Ni2+ HisTrap HP); not shown: His tag, C-terminal, kept
T4 sequence: T1 sequence with A343H, Y354A

B1: BODIPY-FL-labeled C51A/E107C EcSufE (natural protein, Escherichia coli)
chain: MALLPDKEKLLRNFLRCANWEEKYLYIIELGQRLPELRDEDRSPQNSIQGAQSQVWIVMRQNAQGIIELQGDSDAAIVKGLIAVVFILYDQMTPQDIVNFDVRPWFCKMALTQHLTPSRSQGLEAMIRAIRAKAAALS
modifications: BODIPY-FL maleimide label (labeling efficiency 60 to 80%)
notes: EcSufE, transpersulfurase SufE of Escherichia coli, UniProt P76194, with C51A and E107C; also called "WT" EcSufE (double mutant background); C51A/E107C EcSufE control
Kd [1]: > 20000 nM | Kd [2]: 2200 nM | Kd [3]: 60 nM | Kd [4]: > 20000 nM
